According to patent publication US20260209317A1:
Like-named read-outs stand apart in the source and are kept apart here.

Tests used:
[1] = molecular target: SARS-CoV-2 WA-1 S-2P spike protein (SARS-CoV-2) (UniProt P0DTC2)
[2] = molecular target: SARS-CoV-2 Omicron BA.4/BA.5 spike protein (on pseudotyped lentivirus) (SARS-CoV-2) (UniProt P0DTC2)
[3] = molecular target: SARS-CoV-2 Omicron BA.4.6 spike protein (on pseudotyped lentivirus) (SARS-CoV-2)
[4] = molecular target: SARS-CoV-2 Omicron BA.2.12.1 spike protein (on pseudotyped lentivirus) (SARS-CoV-2) (UniProt P0DTC2)
[5] = molecular target: SARS-CoV-2 Omicron BQ.1.1 spike protein (on pseudotyped lentivirus) (SARS-CoV-2) (UniProt P0DTC2)
[6] = molecular target: SARS-CoV-2 Omicron BA.4/BA.5 spike protein (on pseudotyped lentivirus) (SARS-CoV-2) (UniProt P0DTC2); remark: listed apart in the source
[7] = molecular target: SARS-CoV-2 Omicron XBB spike protein (on pseudotyped lentivirus) (SARS-CoV-2) (UniProt P0DTC2)
[8] = molecular target: SARS-CoV-2 Omicron BA.2.75.2 spike protein (on pseudotyped lentivirus) (SARS-CoV-2)
[9] = molecular target: SARS-CoV-2 Omicron BA.1 spike protein (on pseudotyped lentivirus) (SARS-CoV-2) (UniProt P0DTC2)
[10] = molecular target: SARS-CoV-2 Omicron BA.2.75 spike protein (on pseudotyped lentivirus) (SARS-CoV-2) (UniProt P0DTC2)
[11] = molecular target: SARS-CoV-2 Omicron BJ.1 spike protein (on pseudotyped lentivirus) (SARS-CoV-2) (UniProt P0DTC2)
[12] = molecular target: SARS-CoV-2 Omicron BA.4.6 spike protein (on pseudotyped lentivirus) (SARS-CoV-2); remark: listed apart in the source

BD55-5514 (antibody)
% inhibition of ACE2 binding [1]: 99%

LY-CoV1404 (antibody)
neutralization IC50 [2]: 1 ng/mL
neutralization IC80 [3]: 1.4 ng/mL
% inhibition of ACE2 binding [1]: 99%
neutralization IC50 [4]: 1 ng/mL
neutralization IC80 [4]: 4 ng/mL
neutralization IC50 [5]: > 10000 ng/mL
neutralization IC80 [5]: > 10000 ng/mL
neutralization IC50 [6]: 1.4 ng/mL
neutralization IC80 [6]: 3 ng/mL
neutralization IC50 [7]: > 10000 ng/mL
neutralization IC80 [7]: > 10000 ng/mL
neutralization IC50 [8]: 1 ng/mL
neutralization IC80 [8]: 5 ng/mL
neutralization IC50 [9]: 2 ng/mL
neutralization IC80 [9]: 5 ng/mL
neutralization IC50 [10]: 3 ng/mL
neutralization IC80 [10]: 15 ng/mL
neutralization IC50 [11]: > 10000 ng/mL
neutralization IC80 [11]: > 10000 ng/mL
neutralization IC50 [12]: 0.4 ng/mL
neutralization IC80 [12]: 1 ng/mL

S2H97 (antibody)
% inhibition of ACE2 binding [1]: -3%

DH1047 (antibody)
% inhibition of ACE2 binding [1]: 113%

CB6 (antibody)
% inhibition of ACE2 binding [1]: 93%
